Data from US10202584B2, “Red-shifted luciferase-luciferin pairs for enhanced bioluminescence” (The Regents of the University of California, priority 2016, dated 2019).

Columns and labels:
Experiment in all cases: purified protein, by the assay type
Details in all cases: other: apparent, 100 pM enzyme, substrate 0.78 to 50 μM, assay buffer pH 6.0, mean ± s.d., n = 3, 37.0 °C
[1] = system: O=c1c(Cc2ccco2)nc2c(Cc3ccccc3)[nH]c(-c3ccccc3)cn1-2
Procedure: (§1) The final concentrations of all enzymes were 100 pM. Substrate concentrations varied from 0.78 to 50 μM, and peak bioluminescence intensities at individual substrate concentrations were used to fit the Michaelis-Menten equation. Data are shown as mean and s.d. of three independent experiments.
(§2) DH10B cells containing corresponding pBAD plasmids were grown in 5 mL LB starter cultures containing ampicillin (100 μg/mL) at 37° C. and 250 rpm overnight. Each saturated overnight culture was diluted 100-fold into 2YT media containing the appropriate antibiotics and grown under the same conditions. When OD600 reached 0.7-0.9, the expression culture was induced with L-arabinose (0.2%, w/v %) and incubated at room temperature with shaking at 250 rpm for another 16 h. Cells were harvested by centrifugation at 4700 rpm for 15 min and lysed by sonication. The resulting cell lysate was clarified by centrifugation at 18,000 rpm for 30 min at 4° C. The supernatant was incubated with Ni-NTA agarose beads (Pierce) at 4° C. for 2 h. Agarose beads loaded to a plastic column were sequentially washed with 10 mL of wash buffer 1 (pH 8.0, 50 mM Tris HCl, 20 mM Imidazole, 300 mM NaCl, 1 mM DTT) and 10 mL of wash buffer 2 (pH 8.0, 50 mM Tris HCl, 50 mM Imidazole, 300 mM NaCl, 1 mM DTT), followed by elution with elution buffer (pH 8.0, 50 mM Tris HCl, 300 mM Imidazole, 300 mM NaCl, 1 mM DTT). Proteins were buffer-exchanged into Tris-HCl (50 mM, pH 7.4) containing 1 mM DTT using Thermo Scientific Snakeskin dialysis tubing, and next concentrated using 3-kDa Amicon Ultra Centrifugal Filters (EMD Millipore). Protein concentrations were determined using the Pierce Coomassie Bradford Protein Assay Kit (Thermo Fisher). For storage, glycerol was added to a final concentration of 50% (v/v) and the resultant mixtures were kept at −20° C.
(§3) A Synergy Mx Microplate Reader (BioTek) was used for all in vitro bioluminescence characterizations. For kinetics measurements, no emission filter or monochromator was used. […]

[2] = system: O=c1c(Cc2ccccc2)nc2c([Se]c3ccccc3)[nH]c(-c3ccccc3)cn1-2
Procedure: as §1, §2, §3

[3] = system: O=c1c(Cc2ccccc2)nc2c(-c3ccccc3)[nH]c(-c3ccccc3)cn1-2
Procedure: as §1, §2, §3

**Q.** How did the Km [1] turn out when “NanoLuc luciferase (Oplophorus gracihrostris-derived, parent, SEQ ID NO: 1) (Oplophorus gracilirostris; A31E/A60N/A81I/F95D/I117V/K70R/L54V/L99Q/M102K/N193R/P142E/Q151K/Q38R/Q45L/V71I/Y165I)” was run?
**A.** Its Km is 11.5 ± 0.6 µM.

**Q.** What about the Km [2] of the same substance?
**A.** Its Km is 17.8 ± 1.0 µM.

**Q.** What about the Km [3] of the same substance?
**A.** The Km was 5.3 ± 0.2 µM.
